Residue numbers refer to the chain shown, from its start.
What was measured:
[1] = target: T1, HSA (Sigma Life sciences, A1653) (human, UniProt P02768 25-609); assay: SPR (Biacore T200), hNGAL immobilized on CM5 chip, analyte in solution
T1 construct: Printed only as the abbreviation HSA
Description: (§1) The reference channels were treated with EDC/NHS following ethanolamine (blank immobilization). Dilutions of Hepcidin-25 (Peptallova), Fe-enterobactin (Genaxxon Bioscience, S4035.0001), ß-defensin (Sigma Aldrich, D9565), VEGF₈₋₁₀₉ (Pieris, truncated VEGF) and HSA (Sigma Life sciences, A1653) in HBS-EP+ buffer (GE Healthcare, BR-1006-69) were applied to the prepared chip surfaces. The following parameters were used for the binding assay: contact time 60 s, dissociation time 600 s, flow rate 30 μL/min. All measurements were performed on a Biacore T200 instrument (GE Healthcare) at 25° C. […] Prior to the protein measurements three startup cycles were performed for conditioning purposes. Data were evaluated with Biacore T200 Evaluation software (V 1.0). Double referencing was used. The 1:1 Binding model was used to fit the raw data. No binding to the reference channel was detected for all of the targets. […] The bacterial siderophor Fe-enterobactin was selected for this analysis as it constitutes one of the natural ligands of the lipocalin that the lipocalin mutein was derived from. […] HSA and VEGF were used as example of non-related proteins. The hNGAL lipocalin, immobilized in an identical fashion on a CM5 chip compared to the lipocalin mutein was used as positive control for the Fe-enterobactin analyte. As described in the literature, the hNGAL lipocalin bound Fe-enterobactin with subnanomolar affinity, whereas none of the other analytes including hepcidin were bound.

Hepcidin-25 [2] = target: T2, Hepcidin-25 (human); assay: as above
T2 construct: also called Hepc25; mature form of human hepcidin
T2 peptide: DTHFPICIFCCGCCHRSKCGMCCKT
Description: as §1

[3] = target: T3, VEGF8-109 (Pieris, truncated VEGF) (UniProt P15692 214-315); assay: as above
T3 construct: range 8-109; By custom it is counted on mature VEGF-A, not on the precursor
T3 sequence (looked up): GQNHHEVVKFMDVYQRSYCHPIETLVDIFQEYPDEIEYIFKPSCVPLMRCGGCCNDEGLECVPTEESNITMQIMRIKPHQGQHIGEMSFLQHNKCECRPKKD
Description: as §1

[4] = target: T4, ß-defensin (Sigma Aldrich, D9565) (UniProt P60022 33-68); assay: as above
T4 construct: also called mammalian antimicrobial 36 amino acid peptide ß-defensin
T4 peptide (looked up): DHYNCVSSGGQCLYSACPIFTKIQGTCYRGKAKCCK
Description: as §1

[5] = target: T5, Hepcidin-25 containing a C-terminal biotin group (human, C-terminal biotin group); assay: solution competition ECL assay: 25 pM Hepcidin-25-C-bio pre-incubated with the conjugate, remaining free Hepcidin-25-C-bio captured on plate-coated antibody 12B9; STDV 14 pM, mean of n=5
T5 construct: also called Hepcidin-25-C-bio; biotinylated hepcidin
T5 peptide: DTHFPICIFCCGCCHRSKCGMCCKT
Description: (§2) The binding affinity of the hNGAL mutein having the sequence of SEQ ID NO: 2 was compared to the binding affinity of the hNGAL mutein having the sequence of SEQ ID NO: 1 linked to PEG12, PEG20, PEG30 or PEG40 in a solution competition electrochemiluminescence (ECL) assay. A defined molar concentration of Hepcidin-25 containing a C-terminal biotin group (25 pM, Hepcidin-25-C-bio) was incubated with different concentrations of the lipocalin muteins for 30 min. at room temperature. The solution was then transferred to an ECL plate coated with the human hepcidin specific monoclonal antibody 12B9 as described herein (and disclosed in WO2008/097461) to measure the remaining concentration of free Hepcidin-25-C-bio in the solution. 12B9-bound Hepcidin-25-C-bio was detected via the Streptavidin sulfotag detection reagent on the Meso-Scale ECL platform and the concentration determined via a Hepcidin-25-C-bio standard curve. […] The assay, for example, was able to distinguish the binding affinity of one lipocalin mutein (SEQ ID NO: 2) from the binding affinity of another lipocalin mutein (SEQ ID NO: 3). Furthermore, it allowed a direct comparison of different high affinities of the lipocalin muteins as well as conjugates having PEG chains of different length.

Cynomolgus hepcidin 25 [6] = target: T6, Cynomolgus hepcidin 25 (Cynomolgus monkey, UniProt A7XEI3 60-84, not fully specified); assay: surface plasmon resonance
T6 construct: mature; also called Cynomolgous hepcidin 25
T6 peptide: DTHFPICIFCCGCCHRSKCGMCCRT

[7] = target: T5, Hepcidin-25 containing a C-terminal …; assay: solution competition ECL assay: 25 pM Hepcidin-25-C-bio pre-incubated with the conjugate, remaining free Hepcidin-25-C-bio captured on plate-coated antibody 12B9; STDV 6 pM, mean of n=6
Description: as §2

[8] = target: T5, Hepcidin-25 containing a C-terminal …; assay: solution competition ECL assay: 25 pM Hepcidin-25-C-bio pre-incubated with the conjugate, remaining free Hepcidin-25-C-bio captured on plate-coated antibody 12B9; STDV 11 pM, mean of n=5
Description: as §2

[9] = target: T5, Hepcidin-25 containing a C-terminal …; assay: solution competition ECL assay: 25 pM Hepcidin-25-C-bio pre-incubated with the conjugate, remaining free Hepcidin-25-C-bio captured on plate-coated antibody 12B9; STDV 10 pM, mean of n=5
Description: as §2

Hepcidin-25 [10] = target: T2, Hepcidin-25; assay: surface plasmon resonance (Biacore), Hepcidin-25 as analyte, tested side by side with cynomolgus hepcidin 25 in the same assay format; N=3
[11] = target: T1, HSA (Sigma Life sciences, A1653); assay: SPR (Biacore T200), mutein immobilized on CM5 chip, analyte in solution
Description: (§3) The affinity and binding specificity of a lipocalin mutein was determined in a kinetic assay using surface plasmon resonance. The hepcidin-specific lipocalin mutein having the sequence of SEQ ID NO: 1 and the hNGAL lipocalin having the sequence of SEQ ID NO: 4 were immobilized to a level of 750-1100 resonance units (RU) on a CM5 sensor chip (GE Healthcare, BR-1005-30) using an amine coupling kit (GE Healthcare, BR-1000-50). Residual activated groups were saturated with ethanolamine. The reference channels were treated with EDC/NHS following ethanolamine (blank immobilization). Dilutions of Hepcidin-25 (Peptallova), Fe-enterobactin (Genaxxon Bioscience, S4035.0001), ß-defensin (Sigma Aldrich, D9565), VEGF₈₋₁₀₉ (Pieris, truncated VEGF) and HSA (Sigma Life sciences, A1653) in HBS-EP+ buffer (GE Healthcare, BR-1006-69) were applied to the prepared chip surfaces. The following parameters were used for the binding assay: contact time 60 s, dissociation time 600 s, flow rate 30 μL/min. All measurements were performed on a Biacore T200 instrument (GE Healthcare) at 25° C. […] Prior to the protein measurements three startup cycles were performed for conditioning purposes. Data were evaluated with Biacore T200 Evaluation software (V 1.0). Double referencing was used. The 1:1 Binding model was used to fit the raw data. No binding to the reference channel was detected for all of the targets. […] The bacterial siderophor Fe-enterobactin was selected for this analysis as it constitutes one of the natural ligands of the lipocalin that the lipocalin mutein was derived from.

[12] = target: T3, VEGF8-109 (Pieris, truncated VEGF); assay: as above
Description: as §3

[13] = target: T4, ß-defensin (Sigma Aldrich, D9565); assay: as above
Description: as §3

Cynomolgus hepcidin 25 [14] = target: T6, Cynomolgus hepcidin 25; assay: surface plasmon resonance (Biacore), cynomolgus hepcidin 25 as analyte, tested side by side with Hepcidin-25 in the same assay format; N=3
Hepcidin-25 [15] = target: T2, Hepcidin-25; assay: surface plasmon resonance (Biacore T200, 25 °C), mutein amine-coupled to a CM5 chip, Hepcidin-25 as analyte, 1:1 binding model; N=6
[16] = target: T5, Hepcidin-25 containing a C-terminal …; assay: solution competition ECL assay: 25 pM Hepcidin-25-C-bio pre-incubated with the mutein, remaining free Hepcidin-25-C-bio captured on plate-coated antibody 12B9; STDV 23 pM, mean of n=6
Description: as §2

T1 sequence (P02768 25-609): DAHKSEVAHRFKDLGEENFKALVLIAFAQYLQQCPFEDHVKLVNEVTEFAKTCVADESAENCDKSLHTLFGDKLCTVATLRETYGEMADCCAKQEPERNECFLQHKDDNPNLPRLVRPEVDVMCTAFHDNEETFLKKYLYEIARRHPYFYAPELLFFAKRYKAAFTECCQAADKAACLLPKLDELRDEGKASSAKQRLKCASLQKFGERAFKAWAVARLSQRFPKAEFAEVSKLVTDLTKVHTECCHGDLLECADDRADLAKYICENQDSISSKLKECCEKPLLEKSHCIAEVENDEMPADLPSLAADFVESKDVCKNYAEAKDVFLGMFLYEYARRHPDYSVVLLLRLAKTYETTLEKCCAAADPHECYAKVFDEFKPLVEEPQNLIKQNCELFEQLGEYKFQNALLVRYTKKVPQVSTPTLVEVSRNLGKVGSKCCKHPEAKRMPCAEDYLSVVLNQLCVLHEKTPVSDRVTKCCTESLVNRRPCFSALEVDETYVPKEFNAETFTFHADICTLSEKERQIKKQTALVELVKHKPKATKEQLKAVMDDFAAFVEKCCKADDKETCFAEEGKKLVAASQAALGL

B1: hNGAL lipocalin having the sequence of SEQ ID NO: 4 (other)
chain: QDSTSDLIPAPPLSKVPLQQNFQDNQFHGKWYVVGLAGNAILREDKDPQKMYATIYELKEDKSYNVTSVLFRKKKCDYWIRTFVPGSQPGEFTLGNIKSYPGLTSYLVRVVSTNYNQHAMVFFKKVSQNREYFKITLYGRTKELTSELKENFIRFSKSLGLPENHIVFPVPIDQCIDG
notes: also called human neutrophil gelatinase-associated lipocalin; lipocalin 2
Does B1 bind [1]?
Result: no binding

Does B1 bind (Hepcidin-25 [2])?
Result: no binding

Does B1 bind [3]?
Result: no binding

Does B1 bind [4]?
Result: no binding

B2: hNGAL mutein having the sequence of SEQ ID NO: 1 linked to PEG12 (designed binder)
chain: QDSTSDLIPAPPLSKVPLQQNFQDNQFHGKWYVVGLAGNEVLREDKDPMKMWATIYELKEDKSYNVTIVMPLAEKCEYLFQTFVPGCQPGEFTLGGIKSGPGRTSGLVRVVSTNYNQHAMVFFKVVWQNREVFWVTLYGRTKELTSELKENFIRFSKSLGLPENHIVFPVPIDQCIDG
modifications: linear PEG12 (PEG-maleimide) on the free Cys at position 87
notes: also called PEG12 conjugate
Which IC50 [5] does the source give for B2 here?
Its IC50 is 0.048 nM.

B3: hNGAL mutein having the sequence of SEQ ID NO: 1 linked to PEG30 (designed binder)
chain: B2 chain
modifications: linear PEG30 (PEG-maleimide) on the free Cys at position 87
notes: also called PEG30 conjugate; lipocalin-mutein-PEG30 conjugate
Which results are given for B3?
Kd (Cynomolgus hepcidin 25 [6]): 0.066 nM; IC50 [7]: 0.058 nM

B4: hNGAL mutein having the sequence of SEQ ID NO: 1 linked to PEG20 (designed binder)
chain: B2 chain
modifications: linear PEG20 (PEG-maleimide) on the free Cys at position 87
notes: also called PEG20 conjugate
For B4, which IC50 [8] is on record?
Its IC50 is 0.047 nM.

B5: hNGAL mutein having the sequence of SEQ ID NO: 1 linked to PEG40 (designed binder)
chain: B2 chain
modifications: branched PEG40 (PEG-maleimide) on the free Cys at position 87
notes: also called PEG40 conjugate
What does the source list for B5?
Kd (Cynomolgus hepcidin 25 [6]): 0.066 nM; koff (Cynomolgus hepcidin 25 [6]): 0.000245 s⁻¹; kon (Cynomolgus hepcidin 25 [6]): 3.74e+06 M⁻¹ s⁻¹; IC50 [9]: 0.054 nM

B6: hepcidin-specific lipocalin mutein (hNGAL mutein) having the sequence of SEQ ID NO: 1 (designed binder)
chain: B2 chain
notes: also called the lipocalin mutein; hNGAL mutein having a free cysteine residue at amino acid position 87
B6 was tested. Which Kd (Hepcidin-25 [10]) did it give?
Its Kd is 0.1 nM.

Does B6 bind [11]?
Result: no binding

Does B6 bind [12]?
Result: no binding

Does B6 bind [13]?
Result: no binding

And the Kd (Cynomolgus hepcidin 25 [14])?
The Kd was 0.07 nM.

And the Kd (Hepcidin-25 [15])?
The Kd was 0.07 nM.

And the koff (Hepcidin-25 [15])?
Its koff is 0.0002 s⁻¹.

What about the kon (Hepcidin-25 [15]) of the same binder?
Its kon is 3.8e+06 M⁻¹ s⁻¹.

B7: hNGAL mutein having the sequence of SEQ ID NO: 2 (designed binder)
chain: B2 chain with C87S
notes: Non-PEGylated mutein with serine at position 87
With B7 as the binder, how does the IC50 [16] read?
Its IC50 is 0.056 nM.

From US20180311311A1 (Pieris, published 2018)
